Laboratory results taken from article PMC11457862.

How the values were obtained:
[1] = target: T1, biotinylated human IL-2Rβ ectodomain (amino acids 1-214) (human) (UniProt P14784); test: BLI; same set-up as a1; equilibrium titration of the response at the end of the association phase, first-order fit (Figures 2 and 3, Supplemental Table 1)
T1 sequence (chain, biotin on the biotin acceptor peptide (BirA ligase)): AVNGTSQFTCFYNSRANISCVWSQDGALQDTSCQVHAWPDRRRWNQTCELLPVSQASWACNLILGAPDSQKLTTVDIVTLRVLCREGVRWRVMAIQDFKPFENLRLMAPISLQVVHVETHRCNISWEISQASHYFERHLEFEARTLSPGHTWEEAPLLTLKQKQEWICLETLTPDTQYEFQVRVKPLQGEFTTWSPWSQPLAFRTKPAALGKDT

[2] = target: biotinylated human IL-2Rα ectodomain (amino acids 1-217) (human); test: as above
[3] = target: biotinylated human IL-2 (amino acids 1-133, C-terminal biotin acceptor peptide) (human) (UniProt P60568); test: as above
[4] = target: biotinylated human IL-2 (amino acids 1-133, C-terminal biotin acceptor peptide) (human) (UniProt P60568); test: BLI; biotinylated human IL-2, IL-2Rα or IL-2Rβ on streptavidin tips (Octet Red96); soluble analyte in PBSA (PBS pH 7.2, 0.1% BSA), 300 s association; kinetic fit, 1:1 binding model; IL-2/602 Cx 2:1 by the legend (Supplemental Figure 2, Supplemental Table 1)
[5] = target: T1, biotinylated human IL-2Rβ ectodomain (amino acids 1-214) (human); test: as above
[6] = target: biotinylated human IL-2 (amino acids 1-133, C-terminal biotin acceptor peptide) (human) (UniProt P60568); test: BLI; same set-up as a5; equilibrium titration, first-order fit (Supplemental Figure 6C,D, Supplemental Table 5)
[7] = target: T1, biotinylated human IL-2Rβ ectodomain (amino acids 1-214) (human); test: BLI; same set-up as a3; equilibrium titration, first-order fit (Supplemental Figure 4A-C, Supplemental Table 4)
[8] = target: biotinylated human IL-2 (amino acids 1-133, C-terminal biotin acceptor peptide) (human) (UniProt P60568); test: as above
[9] = target: T1, biotinylated human IL-2Rβ ectodomain (amino acids 1-214) (human); test: BLI; biotinylated human IL-2 or IL-2Rβ on streptavidin tips; engineered 602 IC variants and controls in PBSA; kinetic fit, 1:1 binding model (Supplemental Figure 5, Supplemental Table 4)
[10] = target: biotinylated mouse IL-2Rα (mouse) (UniProt P01590); test: BLI; biotinylated mouse IL-2Rα or IL-2Rβ on streptavidin tips; ICs or 602 Ab in PBSA; kinetic fit, 1:1 binding model (Supplemental Figure 6E,F, Supplemental Table 1)
[11] = target: biotinylated mouse IL-2Rβ (mouse) (UniProt P16297); test: as above
[12] = target: biotinylated mouse IL-2Rβ (mouse) (UniProt P16297); test: BLI; same set-up as a7; equilibrium titration, first-order fit (Supplemental Figure 6G,H, Supplemental Table 1)
[13] = target: biotinylated human IL-2Rα ectodomain (amino acids 1-217) (human); test: BLI; biotinylated human IL-2, IL-2Rα or IL-2Rβ on streptavidin tips (Octet Red96); soluble analyte in PBSA (PBS pH 7.2, 0.1% BSA), 300 s association; kinetic fit, 1:1 binding model; IL-2/602 Cx 2:1 by the legend (Supplemental Figure 2, Supplemental Table 1)
[14] = target: biotinylated human IL-2 (amino acids 1-133, C-terminal biotin acceptor peptide) (human) (UniProt P60568); test: BLI; biotinylated human IL-2 or IL-2Rβ on streptavidin tips; engineered 602 IC variants and controls in PBSA; kinetic fit, 1:1 binding model (Supplemental Figure 5, Supplemental Table 4)

Chain of IL-2/602 complex (human IL-2 mixed with 602 antibody) (VH): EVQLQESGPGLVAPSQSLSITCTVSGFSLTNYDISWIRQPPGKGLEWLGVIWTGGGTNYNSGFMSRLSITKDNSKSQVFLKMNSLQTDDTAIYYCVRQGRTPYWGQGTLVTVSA
Chain of IL-2/602 complex (human IL-2 mixed with 602 antibody) (VL): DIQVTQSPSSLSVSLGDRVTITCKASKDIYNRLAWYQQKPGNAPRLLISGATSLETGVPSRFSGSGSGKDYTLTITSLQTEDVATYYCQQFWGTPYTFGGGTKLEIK
Chain of biotinylated mouse IL-2Rβ (mouse) (P16297 27-539): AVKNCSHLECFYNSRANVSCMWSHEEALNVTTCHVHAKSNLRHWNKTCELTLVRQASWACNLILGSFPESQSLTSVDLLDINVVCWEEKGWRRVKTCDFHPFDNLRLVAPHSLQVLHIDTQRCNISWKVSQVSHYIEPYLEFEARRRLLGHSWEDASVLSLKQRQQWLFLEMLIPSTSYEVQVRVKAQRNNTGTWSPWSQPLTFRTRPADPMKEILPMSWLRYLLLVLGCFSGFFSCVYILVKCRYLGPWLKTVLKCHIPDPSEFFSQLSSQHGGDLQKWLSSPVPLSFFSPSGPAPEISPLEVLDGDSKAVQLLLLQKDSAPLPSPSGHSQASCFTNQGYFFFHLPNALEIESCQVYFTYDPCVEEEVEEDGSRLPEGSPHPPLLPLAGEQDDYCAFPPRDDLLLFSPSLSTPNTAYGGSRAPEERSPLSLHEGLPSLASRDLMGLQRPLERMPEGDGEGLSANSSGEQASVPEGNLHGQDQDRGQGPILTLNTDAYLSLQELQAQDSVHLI
Chain of biotinylated mouse IL-2Rα (mouse) (P01590 22-268): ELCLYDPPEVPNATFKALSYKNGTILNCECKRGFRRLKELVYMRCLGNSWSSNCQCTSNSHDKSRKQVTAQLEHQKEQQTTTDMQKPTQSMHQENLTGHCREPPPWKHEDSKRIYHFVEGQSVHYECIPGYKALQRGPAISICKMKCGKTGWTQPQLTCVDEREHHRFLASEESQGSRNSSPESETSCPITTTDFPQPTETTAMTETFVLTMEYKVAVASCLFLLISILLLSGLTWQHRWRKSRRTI

Substance | Kd [1] [nM] | Kd [2] [nM] | Kd [3] [nM] | Kd [4] [nM] | Kd [5] [nM] | Kd [6] [nM] | Kd [7] [nM] | Kd [8] [nM] | Kd [9] [nM] | Kd [10] [nM] | Kd [11] [nM] | Kd [12] [nM] | Kd [13] [nM] | Kd [14] [nM]
602 immunocytokine with 15-amino-acid linker (IL-2-(G4S)3-602 light chain + 602 heavy chain) (from UniProt P60568 21-153) | 8.4 | > 2000 | 905 | 88.3 | – | – | – | – | – | – | – | – | – | –
602 immunocytokine with 25-amino-acid linker (IL-2-(G4S)5-602 light chain + 602 heavy chain) (from UniProt P60568 21-153) | – | > 2000 | 941 | 76.9 | 3.66 | – | – | – | – | – | – | – | – | –
602 immunocytokine with 35-amino-acid linker (IL-2-(G4S)7-602 light chain + 602 heavy chain) (from UniProt P60568 21-153) | 5 | > 2000 | > 2000 | 143 | 4.22 | > 2000 | 5.4 | > 2000 | 0.26 | – | – | – | – | –
human IL-2 (amino acids 1-133), soluble (from UniProt P60568 21-153) (ligand) | – | 7.3 | – | – | – | – | – | – | – | – | – | – | 3.2 | –

The next lines start with the values.

Kd [1] [nM] | Kd [2] [nM] | Kd [3] [nM] | Kd [4] [nM] | Kd [5] [nM] | Kd [6] [nM] | Kd [7] [nM] | Kd [8] [nM] | Kd [9] [nM] | Kd [10] [nM] | Kd [11] [nM] | Kd [12] [nM] | Kd [13] [nM] | Kd [14] [nM] | Substance
– | 5.2 | > 2000 | – | 0.18 | > 2000 | – | – | – | 4.74 | > 10000 | > 10000 | – | – | Control immunocytokine (IL-2-(G4S)7-light chain of anti-fluorescein antibody 4-4-20 + 4-4-20 heavy chain) (from UniProt P60568 21-153)
5.2 | – | 103 | 10.6 | 3.89 | 168 | 6 | 74 | 0.3 | – | – | – | 0.55 | 13.3 | IL-2/602 complex (human IL-2 mixed with 602 antibody) (from UniProt P60568 21-153)
